Laboratory results taken from article PMC6381284.

Target: KSHV glycoprotein H/glycoprotein L (gH/gL) (Kaposi's sarcoma-associated herpesvirus (KSHV)) (UniProt F5HAK9)
UniProt F5HAK9, sequence (F5HAK9 whole entry, looked up): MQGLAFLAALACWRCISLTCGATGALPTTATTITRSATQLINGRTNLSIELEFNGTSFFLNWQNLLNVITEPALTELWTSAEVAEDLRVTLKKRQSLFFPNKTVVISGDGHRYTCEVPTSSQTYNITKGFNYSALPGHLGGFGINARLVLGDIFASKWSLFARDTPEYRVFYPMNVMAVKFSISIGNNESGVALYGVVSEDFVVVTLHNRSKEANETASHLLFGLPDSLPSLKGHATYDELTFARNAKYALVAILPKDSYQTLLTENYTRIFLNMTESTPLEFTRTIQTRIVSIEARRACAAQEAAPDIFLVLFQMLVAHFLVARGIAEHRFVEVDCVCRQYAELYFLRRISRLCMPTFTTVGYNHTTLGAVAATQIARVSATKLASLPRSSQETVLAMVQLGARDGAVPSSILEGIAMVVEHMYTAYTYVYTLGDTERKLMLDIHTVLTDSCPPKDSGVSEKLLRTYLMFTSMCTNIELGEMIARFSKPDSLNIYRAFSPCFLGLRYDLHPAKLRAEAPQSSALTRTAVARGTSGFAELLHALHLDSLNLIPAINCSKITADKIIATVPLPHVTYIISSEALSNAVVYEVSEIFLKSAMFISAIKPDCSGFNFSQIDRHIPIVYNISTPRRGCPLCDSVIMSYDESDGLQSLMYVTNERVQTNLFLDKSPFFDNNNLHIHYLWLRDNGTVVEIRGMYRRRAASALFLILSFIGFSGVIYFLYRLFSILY

“Soluble EphA4-Fc (from UniProt P54764 20-547) (Fc fusion)” showed a virus-free cell-cell fusion (luciferase): CHO-K1 cells with EBV gB and KSHV gH/gL overlaid with HEK293T cells overexpressing membrane EphA4, compared with cells overexpressing EphA2 (% more fusion than with EphA2) of 33.
